# Data taken from patent publication US20200003757A1, “METHOD OF IDENTIFYING AGENTS THAT AFFECT MATURATION, SURVIVAL AND MYELINATION” (KADIMASTEM, LTD., priority 2011, published 2020).
# Legend:
# hES-OPC = experiment: Differentiation assay; dose response of Noggin on hES-OPC (O4/DAPI staining, Cellomics neuronal profiling); format: cell-based, human
# Description: 5000 hES-OPC were seeded in each well of Matrigel and PDL-coated 96 well black clear plates (CI-3603, Corning). The medium used for the experiment comprised DMEM/F12 with 0.5% (v/v) N2 supplement (Invitrogen), 1% (v/v) B27 supplement, Glutamax and 100 U/ml penicillin and 100 μg/ml streptomycin (Biological Industries, IL). The cells were deprived from growth factors 24 hours prior to seeding. 12 hours following seeding, increasing doses of Noggin (Preprotech, Israel) were supplemented to the media for the ten days of differentiation. The Noggin doses ranged between 15 nM to 0.015 nM (450 ng/ml to 0.45 ng/ml) with 3.16 fold dilutions (square root of 10) in the presence of 0.1% DMSO and 50 μg/ml Vitamin C. Samples without Noggin in the presence of 0.1% DMSO and 50 μg/ml Vitamin C served as negative control. The media was changed every other day by replenishing ⅔ of the media. On day ten, the wells were fixed using 4% paraformaldehyde (PFA) for further O4 and Dapi staining.
# Cells were fixed using 4% paraformaldehyde (PFA), washed with PBS and kept at 4° C. before staining. Non-specific staining was blocked with normal goat serum (5% w/v in PBS) for 30 minutes at RT. Primary mouse monoclonal (mMc) and rabbit polyclonal antibodies, diluted in 1% goat serum, were as described in Table 2, herein below. All staining was followed by the nuclear fluorescent dye DAPI (Sigma, 0.05 μg/ml). All coverslips were mounted in Mowiol (Calbiochem, La Jolla, Calif.). An Olympus IX-70 FLA microscope with a DVC-1310C digital camera (DVC, Austin, Tex.) was used and images processed with Photoshop and analyzed with Image-Pro-Plus software (Media Cybernetics, Silver Spring, Md.) to measure Integrated Optic Density (IOD) of color-specific pixels and MBP positive fiber length. […]
# BMP signaling negatively regulates oligodendrocyte lineage development, and it has been shown that Noggin, an inhibitor of BMP signaling, promotes the differentiation of ES-derived oligodendrocytes. As a proof of concept that effects of drugs on oligodendrocyte differentiation can be quantified, the inventors searched for the optimal concentration of Noggin to be used to promote differentiation. […] Nuclear DNA staining with DAPI was used to quantify the cell number per field, and oligodendrocytes were characterized by staining with O4. […] Similarly, O4 positive processes (green) were counted and measured only if attached to O4 cell body. Places where one process becomes two were counted as branch point (FIGS. 3D-E, yellow circles). The numbers of processes, their lengths, and the number of branch points per O4 positive cell body were counted. […] Thus, it may be concluded that the present assay is capable of quantifying the effect of Noggin. […]
# human oligodendrocytes = experiment: Human oligodendrocytes and hESC-OPC survival assay (dead cell labeling and O4 labeling); format: cell-based; conditions: 14 days in culture
# Description: In order to evaluate the survival of human oligodendrocytes or its progenitor cells in culture, a specific dead cell labeling (Live/dead viability/cytotoxicity kit for mammalian cells, Invitrogen, molecular probes, L3223) was used. A culture of differentiated oligodendrocytes and oligodendrocytes progenitor culture sorted by O4+ or CD140+ MACS sorting respectively were obtained. The effect of recombinant human IFN-Y (R&D systems, Biotest, 285-IF-100) was tested on oligodendrocytes survival. Following 14 days in culture the cells were labeled with dead cell labeling (Ethidium heterodimer 1-red labeling) and O4 labeling (green). […] Such an assay gives complementary results on the effect of tested compound on oligodendrocytes survival.
molecule,measurement,setting,value
"Noggin: an inhibitor of BMP signaling (Preprotech, Israel) (protein, UniProt Q13253 28-232, looked up) Noggin: QHYLHIRPAPSDNLPLVDLIEHPDPIFDPKEKDLNETLLRSLLGGHYDPGFMATSPPEDRPGGGGGAAGGAEDLAELDQLLRQRPSGAMPSEIKGLEFSEGLAQGKKQRLSKKLRRKLQMWLWSQTFCPVLYAWNDLGSRFWPRYVKVGSCFSKRSCSVPEGMVCKPSKSVHLTVLRWRCQRRGGQRCGWIPIQYPIISECKCSC",morphology of O4 positive OLs versus absence of Noggin,"hES-OPC; Noggin added after growth factor removal, FIGS. 3A-C",stimulates the emergence of OLs with longer and multiple processes
same,number of O4 positive cell per well,hES-OPC; ten days differentiation with noggin treatment,not changed
same,"process numbers per cell, total process length per well, number of branch points per cell","hES-OPC; ten days differentiation, O4 positive cells, serial dilutions of Noggin",correlated with Noggin concentration
same,EC50,"hES-OPC; ten days without growth factors, O4 staining, triplicate, FIG. 3F, read-out: EC50 (50% of the maximal effect), curve generated by integrating process numbers per cell, total process length per well and number of branch points per cell",157 pM
"IFN-Y: recombinant human IFN-Y (R&D systems, Biotest, 285-IF-100) (protein, UniProt P01579 24-161, looked up) Interferon gamma: QDPYVKEAENLKKYFNAGHSDVADNGTLFLGILKNWKEESDRKIMQSQIVSFYFKLFKNFKDDQSIQKSVETIKEDMNVKFFNSNKKKRDDFEKLTNYSVTDLNVQRKAIHELIQVMAELSPAAKTGKRKRSQMLFRG",percentage of dead cells,"human oligodendrocytes; Ethidium heterodimer 1 labeling, FIG. 12E",increased the percentage of dead cells
same,number of differentiated oligodendrocytes (O4+ cells),"human oligodendrocytes; O4 labeling, FIG. 12F",decreased the number of differentiated oligodendrocytes
